The results in this text go back to article PMC6224480, “Insights into Kinesin-1 Activation from the Crystal Structure of KLC2 Bound to JIP3” (Structure(London, England:1993), 2018).

Assay [1] deals with JIP3^LZ (leucine zipper domain of murine JIP3 isoform A, residues 417-487) (murine). The assay can be described thus: SEC-MALS; JIP3^LZ on a WTC-030S5 column; 25 mM HEPES pH 7.5, 0.1 M NaCl, 1 mM TCEP; 1 ml/min. (In general: Size exclusion chromatography separates by hydrodynamic size, large species first.)
The target in assay [2] is GST3C-JIP3^LZ (murine). The assay can be described thus: ITC; KLC2^TPR as titrant, GST3C-JIP3^LZ in the cell; 25°C; 0.5 M NaCl, 25 mM HEPES, 5 mM MgCl2, 1 mM TCEP, pH 7.5; four experiments globally fitted with a two-stage sequential model (A + B + B → AB + B → ABB); macroscopic association constants.

KLC2^TPR (murine kinesin light chain 2 TPR domain, residues 191-480), sequence (O88448 190-479): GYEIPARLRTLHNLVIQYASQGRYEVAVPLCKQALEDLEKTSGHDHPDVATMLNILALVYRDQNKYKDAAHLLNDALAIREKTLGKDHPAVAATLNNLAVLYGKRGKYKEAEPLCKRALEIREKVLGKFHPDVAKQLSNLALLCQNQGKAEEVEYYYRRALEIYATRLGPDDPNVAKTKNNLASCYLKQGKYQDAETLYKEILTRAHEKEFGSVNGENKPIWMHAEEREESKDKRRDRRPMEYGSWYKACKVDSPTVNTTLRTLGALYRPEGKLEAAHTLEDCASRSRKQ

What is called stoichiometry N is the number of molecules, sites or subunits per partner or assembly. For “JIP3^LZ (leucine zipper domain of murine JIP3 isoform A, residues 417-487) (domain or fragment)”, the stoichiometry N in assay [1] came to 2.
As for “KLC2^TPR (murine kinesin light chain 2 TPR domain, residues 191-480) (from UniProt O88448 190-479) (domain or fragment)”, in assay [2], the K (macroscopic association constant), stage A + B + B → BA + B is 0.132 µM⁻¹; the K (macroscopic association constant), stage BA + B → BAB amounted to 0.132 µM⁻¹; the dH, stage A + B + B → BA + B was -18.8 kcal/mol; the dH, stage BA + B → BAB is 0.952 kcal/mol.
